# B1: human CytB5R3 (endogenous, vascular cell co-culture and human coronary ECs) (protein)
# chain: GAQLSTLGHMVLFPVWFLYSLLMKLFQRSTPAITLESPDIKYPLRLIDREIISHDTRRFRFALPSPQHILGLPVGQHIYLSARIDGNLVVRPYTPISSDDDKGFVDLVIKVYFKDTHPKFPAGGKMSQYLESMQIGDTIEFRGPSGLLVYQGKGKFAIRPDKKSNPIIRTVKSVGMIAGGTGITPMLQVIRAIMKDPDDHTVCHLLFANQTEKDILLRPELEELRNKHSARFKLWYTLDRAPEAWDYGQGFVNEEMIRDHLPPPEEEPLVLMCGPPPMIQYACLPNLDHVGHPTERCFVF
# B2: FLAG-tagged CytB5R3 (Origene) (protein)
# chain: B1 chain
# Target: purified Hb α chains (isolated from lyophilized hemoglobin, Sigma), P69905
# Sequence (P69905 2-142): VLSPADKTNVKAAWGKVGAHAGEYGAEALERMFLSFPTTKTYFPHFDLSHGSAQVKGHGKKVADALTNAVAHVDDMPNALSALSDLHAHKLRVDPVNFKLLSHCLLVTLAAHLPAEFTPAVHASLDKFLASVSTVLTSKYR
protein,measurement,value
B1,"met-Hb α reduction, time lapse UV-visible spectrometry of EC lysates mixed with purified Hb α chains and NADH",loss of CytB5R3 inhibited metHb α reduction
B2,"met-Hb α reduction, time lapse UV-visible spectrometry of lysates of ECs transfected with CytB5R3-Flag, mixed with purified Hb α chains and NADH",overexpression enhanced metHb α reduction
